Results reported in article PMC12952242 (Molecular cell, 2025).

Legend:
[1] = target: U1 snRNP (lacking the Sm ring), reconstituted (human, UniProt P08621-1 1-216; P09012 1-282; P09234 1-159); assay: pull-down
[2] = target: U1–70K (SNRNP70) 1–216, recombinant (human, UniProt P08621-1 1-216); assay: pull-down
Chain of U1–70K (SNRNP70) 1–216, recombinant (P08621 1-216): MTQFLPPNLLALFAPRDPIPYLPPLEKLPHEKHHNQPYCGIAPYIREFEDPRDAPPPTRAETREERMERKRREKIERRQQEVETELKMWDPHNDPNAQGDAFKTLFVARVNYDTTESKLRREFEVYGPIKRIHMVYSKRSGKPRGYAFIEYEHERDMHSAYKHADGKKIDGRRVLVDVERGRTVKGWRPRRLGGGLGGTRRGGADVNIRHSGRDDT

Chain of U1 snRNP (lacking the Sm ring), reconstituted (P08621 1-216, chain 1 of 3): as the sequence (P08621 1-216) above
Chain of U1 snRNP (lacking the Sm ring), reconstituted (P09012 whole entry, chain 2 of 3): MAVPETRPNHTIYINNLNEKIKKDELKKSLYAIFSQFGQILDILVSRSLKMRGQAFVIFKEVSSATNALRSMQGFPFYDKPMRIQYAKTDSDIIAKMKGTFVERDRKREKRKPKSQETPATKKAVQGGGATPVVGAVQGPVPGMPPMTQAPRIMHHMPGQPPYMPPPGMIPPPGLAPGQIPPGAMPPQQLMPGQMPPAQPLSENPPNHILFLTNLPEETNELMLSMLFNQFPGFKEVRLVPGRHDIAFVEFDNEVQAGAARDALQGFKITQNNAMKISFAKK
Chain of U1 snRNP (lacking the Sm ring), reconstituted (P09234 whole entry, chain 3 of 3): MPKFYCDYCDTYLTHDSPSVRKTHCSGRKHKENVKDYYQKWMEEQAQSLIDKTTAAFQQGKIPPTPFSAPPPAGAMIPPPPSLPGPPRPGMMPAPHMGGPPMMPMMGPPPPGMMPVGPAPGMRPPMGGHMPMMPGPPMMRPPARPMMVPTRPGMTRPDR

| Binder | binding result [1] | binding result [2] |
| --- | --- | --- |
| ZNF207 full-length, recombinant (natural protein) not shown | binds | – |
| ZNF207 1–122 (ZnF+Hel), recombinant (domain or fragment) not shown | binds | binds |
